Experimental data published in patent US8722052B2, “Vaccinia virus protein A46 peptide and use thereof” (priority 2008, dated 2014).
“Also recorded” adds a separate entry of the source. Square brackets hold non-standard residues; d marks the D form. Ends that are not written are not given here.

Biological target: T1, TLR4 (Mus musculus, UniProt Q9QUK6)
T1 sequence (Q9QUK6 26-835): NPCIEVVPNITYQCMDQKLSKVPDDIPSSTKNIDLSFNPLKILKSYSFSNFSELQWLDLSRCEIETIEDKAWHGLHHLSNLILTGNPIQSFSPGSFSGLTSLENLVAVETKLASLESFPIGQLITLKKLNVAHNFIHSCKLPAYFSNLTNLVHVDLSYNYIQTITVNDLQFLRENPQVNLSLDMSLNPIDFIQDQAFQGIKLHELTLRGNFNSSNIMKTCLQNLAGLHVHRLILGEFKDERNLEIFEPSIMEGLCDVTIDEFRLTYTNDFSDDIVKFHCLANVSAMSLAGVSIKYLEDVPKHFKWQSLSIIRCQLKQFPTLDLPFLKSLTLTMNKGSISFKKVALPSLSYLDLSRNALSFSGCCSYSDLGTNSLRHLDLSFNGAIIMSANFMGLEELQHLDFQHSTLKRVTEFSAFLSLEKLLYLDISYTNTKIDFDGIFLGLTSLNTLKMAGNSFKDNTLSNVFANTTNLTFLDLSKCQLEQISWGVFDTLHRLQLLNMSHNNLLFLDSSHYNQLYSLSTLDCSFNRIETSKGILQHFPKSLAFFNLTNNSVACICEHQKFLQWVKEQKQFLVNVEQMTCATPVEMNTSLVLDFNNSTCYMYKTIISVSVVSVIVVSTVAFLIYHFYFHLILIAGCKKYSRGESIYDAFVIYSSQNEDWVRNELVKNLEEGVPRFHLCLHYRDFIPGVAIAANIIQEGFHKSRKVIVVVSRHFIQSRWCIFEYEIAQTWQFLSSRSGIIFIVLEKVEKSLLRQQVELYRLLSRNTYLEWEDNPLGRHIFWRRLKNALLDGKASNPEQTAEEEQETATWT
T1 sequence (Q9JHF9 19-160 partner): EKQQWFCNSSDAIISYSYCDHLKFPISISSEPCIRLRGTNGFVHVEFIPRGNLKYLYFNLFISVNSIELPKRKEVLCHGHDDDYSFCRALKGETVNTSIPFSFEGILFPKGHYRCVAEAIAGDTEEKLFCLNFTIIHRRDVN
Test: LPS-induced TNFα in immortalised murine macrophages, ELISA
Assay type: cell-based
Set-up: endogenous in cells; immortalised murine bone-marrow-derived macrophages
Conditions: peptide 1, 5 or 25 μM 1 h before 10 ng/ml LPS, 6 h
Method: FIGS. 14A and B are bar charts showing the comparison of the inhibitory effect of the L- and D-forms of A464 on LPS-induced TNFα in primary human and murine cells. PBMC (1×10^6 cells/ml, (A)) or immortalised murine macrophages (1.5×10^5 cells/ml, (B)) were seeded in 96 well plates 24 hours before treatment. L-form and D-form A464 peptides (with the 9R delivery peptide on the C-terminus, SEQ ID NO. 20) were added to the cells at a concentration of 1, 5 or 25 μM 1 hour before stimulating with 10 ng/ml LPS. Supernatants were collected 6 hours after stimulation and assayed for either human (A) or murine (B) TNFα production by ELISA. No peptides were added to the control wells (black bars). Data is representative of at least three experiments each performed in triplicate and is expressed as mean±s.d;
FIGS. 15A and B are bar charts showing the effect of the D-form A464 peptide with the TAT delivery sequence on LPS induced TNFα in primary human and murine cells. PBMC (A) and immortalised murine macrophages (B) were seeded in 96 well plates 24 hours before treatment. D-form of A467 (SEQ ID NO. 37) and A464 (SEQ ID NO. 36) with the TAT delivery sequence were added to the cells at a concentration of 1, 5 or 25 μM 1 hour before stimulating with 10 ng/ml LPS. The peptides were added into the unstimulated control wells at 25 μM. Supernatants were collected 6 hours after stimulation and assayed for either human (A) or murine (B) TNFα production by ELISA. No peptides were added to the control wells (black bars). Data is representative of at least three experiments each performed in triplicate and is expressed as mean±s.d;
FIGS. 16A and B are bar charts showing the effect of attaching 9R to the N-terminus of A464 on LPS-induced TNFα in primary human and murine cells. Immortalised murine macrophages (A) and PBMC (B) were seeded in 96 well plates 24 hours before treatment. L-form of A467 (SEQ ID NO. 39) and A464 (SEQ ID NO. 38) with the 9R-delivery sequence at the N-terminus were added to the cells at a concentration of 1, 5 or 25 μM 1 hour before stimulating with 10 ng/ml LPS. The peptides were added into the unstimulated control wells at […]. Supernatants were collected 6 hours after stimulation and assayed for either murine (A) or human (B) TNFα production by ELISA. No peptides were added to the control wells (black bars). Data is representative of at least three experiments each performed in triplicate and is expressed as mean±s.d;
FIGS. 17A and B are bar charts showing the effect of the D-form A464 with 9R at the N-terminus on LPS-induced TNFα in primary human and murine cells. Immortalised murine macrophages (A) and PBMC (B) were seeded in 96 well plates 24 hours before treatment. D-form of A467 (SEQ ID NO. 39) and A464 (SEQ ID NO. 38) peptides with the 9R-delivery sequence at N-terminus were added to the cells at a concentration of 1, 5 or 25 μM 1 hour before stimulating with 10 ng/ml LPS. The peptides were added into the unstimulated control wells at 25 μM. Supernatants were collected 6 hours after stimulation and assayed for either murine (A) or human (B) TNFα production by ELISA. No peptides were added to the control wells (black bars). Data is representative of at least three experiments each performed in triplicate and is expressed as mean±s.d;
FIGS. 18A and B are bar charts showing the effect of shortened A464 peptides with deletions of N- and C-terminal amino acids on LPS-induced TNFα in murine macrophages. Immortalised murine macrophages were seeded in 96 well plates (1.5×10^5 cells/ml) 24 hours before treatment. A464 peptides with a deletion of one (N-1) (SEQ ID NO. 40) or two (N-2) (SEQ ID NO. 41) amino acids from the N-terminus (A), or three (C-3) (SEQ ID NO. 42) or six (C-6) (SEQ ID NO. 43) amino acids from the C-terminus (B), were added to the cells at a concentration of 1, 5 or 25 μM 1 hour before stimulating with 10 ng/ml LPS. Peptides were added to the control wells at 25 μM. […]

| Substance | inhibition of LPS-induced mTNFα production |
| --- | --- |
| 9RN-A464 (RRRRRRRRRKYSFKLILAEY) [Peptide 9RN-A464] | complete inhibition was observed at 1 μM |
| D-9RN-A464 ([dR][dR][dR][dR][dR][dR][dR][dR][dR][dK][dY][dS][dF][dK][dL][dI][dL][dA][dE][dY]) [Peptide D-9RN-A464] | no inhibition at 1 μM |
| KYSFKLILAEYRRRRRRRRR [Peptide A464] | significant inhibition of TLR4 by A464 (SEQ ID No. 20) at 1 μM; also recorded: complete inhibition at 1 |
